The values that follow come from the DeepSol protein solubility set.

This data set is described as follows: soluble on expression in E. coli; label from the status in PepcDB or PDB records.
Take “AMGSVTVHSSEPEVRIPENNPVKLSCAYSGFSSPRVEWKFDQGDTTRLVCYNNKITASYEDRVTFLPTGITFKSVTREDTGTYTCMVSEEGGNSYGEVKVKLIVLVPPSKPTVNIPSSATIGNRAVLTCSEQDGSPPSEYTWFKDGIVMPTNPKSTRAFSNSSYVLNPTTGELVFDPLSASDTGEYSCEARNGYGTPMTSNAVRMEAVE”: the “soluble on expression in E. coli” value is “soluble”.
Under “MIRLPLLPTVIKNLFKKPATNPFPKTEPVPVPEDFRGKLVYNVDKCVGCRMCVTVCPAGVFVYLPEIRKVTLWIGRCVMCKQCVDVCPTAALQMSDEFLLASYDKYDAKLIYLTPEEAEDIKKKLEEANKAKAEKQASK” stands “not soluble”; under “MAAQRRSLLQSEQQPSWTDDLPLCHLSGVGSASNRSYSADGKGTESHPPEDSWLKFRSENNCFLYGVFNGYDGNRVTNFVAQRLSAELLLGQLNAEHAEADVRRVLLQAFDVVERSFLESIDDALAEKASLQSQLPEGVPQHQLPPQYQKILERLKTLEREISGGAMAVVAVLLNNKLYVANVGTNRALLCKSTVDGLQVTQLNVDHTTENEDELFRLSQLGLDAGKIKQVGIICGQESTRRIGDYKVKYGYTDIDLLSAAKSKPIIAEPEIHGAQPLDGVTGFLVLMSEGLYKALEAAHGPGQANQEIAAMIDTEFAKQTSLDAVAQAVVDRVKRIHSDTFASGGERARFCPRHEDMTLLVRNFGYPLGEMSQPTPSPAPAAGGRVYPVSVPYSSAQSTS”, “soluble”.
The same measure for “MGSDKIHHHHHHMNPPPFRLFLAIRSLHKGGAERQMVELAKGLDKERFALTLCTLYGGGELERELKESGVEIFCLHKRGRSDFSFLRRYRTLIQEQNPKAIYSFLPEMNLFSLMASRFLKRSPKILWGFRSSDMDVKSYGWQSRLYYAAQKLLSPFASKIITNSHHSLAYHKHIGYCMKRAQVIHNGIDTKRFSPSLELRESFRQRYHLKDKIAIGIAARMDIAKGYPYLAKAAKIILSRYPKVLFFAAGEIDPLLQKECLEILGQEGERFIWLGGVERMEEVYNGWDILVSSSLTESFSNSIAEGMACALAPIATDVGDTSVILGEVGTLIPPKDSEMLAQKLALMIESDFKTEGERARERIVTLFSLEAMIQNSTKAILTCAES”: “not soluble”.
Under “MSKIAKTAIISPKAEINKGVEIGEFCVIGDGVKLDEGVKLHNNVTLQGHTFVGKNTEIFPFAVLGTQPQDLKYKGEYSELIIGEDNLIREFCMINPGTEGGIKKTLIGDKNLLMAYVHVAHDCVIGSHCILANGVTLAGHIEIGDYVNIGGLTAIHQFVRIAKGCMIAGKSALGKDVPPYCTVEGNRAFIRGLNRHRMRQLLESKDIDFIYALYKRLFRPIPSLRESAKLELEEHANNPFVKEICSFILESSRGVAYKSSEYSSEEKQEE” stands “soluble”; under “PQQSTWQMATNTPLECRLVHPIPNYGDAEFSSRAGKKINLDFELKMRRPMGDTRNVSLVSMPPVWRPGEGADRITNLQFFKQFDGYIGGQTAWSLLSELEKGRYPTFSYQDWQSRDQRIEVALSSVLFQQPYNEFSDCISKLLPYS”, “not soluble”.
As to “MAGDPMYHSRPIFNIIDSSNIQDRRELKLVLRHTEIAYRSFAQEDLIPAQRSWMNSIINTDVPIDPAIDEVVKRFCEVACLPGPAGIPLNIILNDSLTYVYCSFQAMRKYAHKRFYDGVSDEGVVISTVPPYAEGITKETMRSWHNNVCQNTSNETHDLDAYIAFLPTSLQNPSFSHMKIGCDSFLAPSRVDPFCVEIIAVGKALFHDNGLKKNPRCGGQWLPPSCLEHHHHHH”, the “soluble on expression in E. coli” value is given as “not soluble”.
Regarding “MGSDKIHHHHHHMKKLHGFENEYLFVLPPVILNNFNFSKVIKLLYITDLGFYPKARYHFVHRDRGTEEWILIFCTHGKGVVKSATEEWLIESGSIVLLPPGKEHTYYAFDDDPWDIFWAHFNGDSVNEYIPQEALQGNGFLVINKTSTEDMQMLMSQFWQMIQALSAGFSYQSVFYSSQVLGATLAYVSLQSVLPHDSYTMGNEYITKAVKYIYDHFEEKVSLSTLTEVLDVSKSYLSRIFRQTVGTSVNQFILDIKMKQACYYLKDTNLAVHQIASRLGYDDPYYFSRIFKKVVGSSPRVFRKQEKNRL”, the “soluble on expression in E. coli” value was “not soluble”.
Consider “MKCQKDDPICHLRDDMQDGDNSVNRTVSHLFQLTLTILTRVYSNLNEISLVCQSWNLHAESSGIYKIPQKVQISLLKTFETNREAKSKNLLDPVLLDQFANQSIRAHSLLLLPYSTTRYKTWTGKTFSKHNLIDEFVGKSFECATESFCPDPCCSGIPSVVRSSSKYAPLCKMNSCQKASTCIVKHFENDDLSKLRLNQFNVNCGCEEPGTIYRPDIGRCVHHNPCTKQSLCRDFGQECVNTASGYKCVCQLGYFRNGSNSCAPLKFSAPVYHGFALSEEMDEL”, for which the “soluble on expression in E. coli” value is reported as “not soluble”.
The same measure for “SEAKTLGTVTPRKPVLSVSARKIKDNAADWHNLILKWETLNDAGFTTANNIANLKISLLNKDKIELDSSSPASKENEEKVCLEYNEELEKLCEELQATLDGLTKIQVKMEKLSSTTKGICELENYHYGEESKRPPLFHTWPTTHFYEVSHKLLEMYRKELLLKRTVAKELAHTGDPDLTLSYLSMWLHQPYVESDSRLHLESMLLETGHRAL”: “soluble”; for “MGSDKIHHHHHHMSGMIGKIQDKKIFSITIIPSSWCNFRCVYCYENDHYKIKNMITTSEMTKRIKLFLENNIKTGFFRKVHIRWYGGEPLLDFKTIIDIMDFTNSIGKTYKTDIIGEIITNGYLLDIVKFKILLEKGVKIFQVTIDGYKDAHDKLRPLLNGKPTFDKIFENLIQTRNVTDNFFMFIRSNVMPDNLDSIKKFLDLASNYFSRDRRYYFTFFPVTRSGGDNDKNLKVIEPKKRMEIIQELYMYATQLGLNIPDKDTLLQIDGVPAMDDLCQALYPFSIIIRNDGKLFKCPLTVMIDDESVGHIEEDGSIVLDESKINRWAKYILSPLSRGCPRLHELGEVVGVEAE”: “not soluble”; for “MTEKLKNSKEVIAYIAECFPKCFTLEGEAKPLKIGIFQDLAERLNEDEKVSKTQLRAALRQYTSSWRYLHGVKPGAVRVDLDGNPCGELEEEHVEHAKATLAESKAKVQARRKEQAQKAREEGKAKAKPAANKKPQQPRRTNKPKVQKPTKPVETRALNADEITVGNAVNVNMGKGNMAATIVEINKDDVRVQLANGLQMVVKAEHLRA”: “soluble”.
The same measure for “MARASSTKARKQRHDPLLKDLDAAQGTLKKINKKKLAQNDAANHDAANEEDGYIDSKASRKILQLAKEQQDEIEGEELAESERNKQFEARFTTMSYDDEDEDEDEDEEAFGEDISDFEPEGDYKEEEEIVEIDEEDAAMFEQYFKKSDDFNSLSGSYNLADKIMASIREKESQVEDMQDDEPLANEQNTSRGNISSGLKSGEGVALPEKVIKAYTTVGSILKTWTHGKLPKLFKVIPSLRNWQDVIYVTNPEEWSPHVVYEATKLFVSNLTAKESQKFINLILLERFRDNIETSEDHSLNYHIYRAVKKSLYKPSAFFKGFLFPLVETGCNVREATIAGSVLAKVSVPALHSSAALSYLLRLPFSPPTTVFIKILLDKKYALPYQTVDDCVYYFMRFRILDDGSNGEDATRVLPVIWHKAFLTFAQRYKNDITQDQRDFLLETVRQRGHKDIGPEIRRELLAGASREFVDPQEANDDLMIDVN”: “soluble”; for “MAHHHHHHMWNLNRLYRQNELSMHGVRNNHDIIVVRQVNISDKNNPDNYLHNQNNTNTSIKQNPQSVILNEKELLNLVQNFNHINRKHKGFCETSIFKNSTFSNTNNEHNGEDSFNTYLIIDKWKTKREFEKSKKEFEKLFAHKNHLYDKKMEDIYLNYEMYNNNYETVSAQNIFQKLYYFIFD”: “not soluble”.
The same measure for “MGSDKIHHHHHHMWDWIGKLDELRRSNQLAVLVTVTKSSGSTPRKHGAKMIVLPDGTFYGTVGGGTPEYYALEDARACFETMQSTTSSVPLKQRGEFPACGGTMEFYMEVINDNPVLHLFGAGHIGQSLCQILDGTPFRIHLIDEREEWINAPNLPGSVIRHQRHYSDFIEKAIWCDKRTFVAIQTFSGTLDQQVLEEVLPNPTRYVGMIGSKAKWAKVRSNLEEKGLDLSAVRCPIGHDNGGNSPREIAISIASQLLSTYYGRE”: “not soluble”; for “MQQVPDKIYVSRSRLKSNRRRLINETDVERLFSRNGFQIIHPQELTIKEQINLFRHAQVIAGPLGSAMYNCVFQTKPTKKLLLTYEKFIKMSDLLINTSTNGLLYYFAGTEHKQNKSPSNTEWSINLNQLEHHHHHH”: “not soluble”.
For “MGSDKIHHHHHHMFDFKELEAFVWVVRLGSFRKGAAKLYLTQPSISDRITRLEDSVGESLLDRSARPVQPTLRGREFFTYAERLLEGREEAMRLFQDEESFSGTLRLGVIETIASSWCPTFMRRLAERYPQLTIELTVDISPFLHQRLAENDLDMLFAMDGVAPGLCAIQTPLCTYEMGMFAAPEMAATLQRGGPAAFAETAFISFSKQARPYRELVAYLTALGIDTPRIHRTSTLMTIMRMSIEGVGIGVLPVATVRDAVESGSLVRLTLEEPLPPMIYDAIWRSANYPSFCASVARLAKQCATDYAQDHGKLSSPASMKGYVDT”, the “soluble on expression in E. coli” value is “not soluble”.
In the case of “MGSDKIHHHHHHLFNYFQLNDPKDFKHLLNMAGQDILINGKPARALITNTNLTESKDNRNITTLENIESGYLIDYDDGKWLVISEVSGKRYNKYKGIMQKCHNTLTVNIAGILHRVPYVVTNKVNLNIDVTYYLTVLENEIYILVANNTINSNIQLNDIYKIGRFNYKVISMDDISRPGLLLMKMKYSEEGQVLPNYSITILNGDTLTTDTATPVQLNVEQKDGETVLTNPLPMVFTSSDISIATVDSTGMVTPVSVGNVTITVSFESDTTVNDSIVITVEEVEVPETYTLELIGDTEIKQNQTKTYTAVKKNGLGDIVEGATFDFSIDPETTPADKYTLTVLDNTQCSIKANGATYYINLIATDRTDNSLTVSKRIWLKPLF”, the “soluble on expression in E. coli” value is listed as “not soluble”.
As to “MDLHELTARLHAIRDRNDWRQFHSPKNLAMAASVEMAELVEIFQWLTEDQSRTLSAEQLEHAGQEVGDIVLYLLLFCGETGLDLEQVVRAKLADCERRFLP”, the “soluble on expression in E. coli” value was “soluble”.
Turning to “MGSDKIHHHHHHAQKGEKTLTVEVSNEWTQNKTDEPIVIDLNNLKAGFNIKSATVWEGNKEIPSQLDDLNGDARADELAFLIDMPAKSNKSFRIILSSEKSEKNYPARTYAQMKAYGHNNKFANITGFSAAGTENVYSFVYHHGPAIESELVAYRIYFNEKQTVDPYSKVNKRLEIKETCFYPTKAQRANGYGDDALRVYNSGGVGALKGWNGTEATHIKPVVNRTERVLASGPVRAIVEAEVIGWEYQGNDLNMINRYTIYGGHRDMKVDVLFDRPLKQEVFAAGVQILKEGGHMSDHKGLTGSWGTDWPVTDTIGYVKETTGMGTFIPKYIGKEVQDGSNYLYTLQAPGQQHFHYYVTFTSKKESFGFKDMKDWFNYLPQWRKELEHPCKITIK”, the “soluble on expression in E. coli” value was “not soluble”.
Turning to “MSRTEGSHEAEQDLTMIVGTYTSGDSKGLYSFRFNEENGTATALSEAEVENPSYLVPSADGKFIYAVSEFSNEQAAANAFAFNKEEGTFRLLNTQKTGGEDPCYIITNGSNVVTANYSGGSISVFPIDKDGSLLPASEVVKFKGSGADKERQEKPHLHCVRITPDGKYLFADDLGTDQIHKFIVNPNAKADNEDVFLKEGSPASYKVEAGSGPRHLTFAPNGSYAYLINELSGTVIAFEYNDGELKEIQTIAADTVGAKGSGDIHISPDGKFLYASNRLKADGLAIFSIHPENGMLTKVGYQLTGIHPRNFIITPNGKYLLVACRDSNVIQVYERDTDTGLLTDIRKDIKVDKPVCIKFVPLEHHHHHH”, the “soluble on expression in E. coli” value is “soluble”.
Under “MSLTESARATVSLGFTAELFPPGTHMCYIYNDERERLEIMSEFVRSGIESGEKIAYFVEEMSPQALRDYLAGLGIVPTEEAQLEIAPSVDVYCPEGRFSPDRMLGRLRSAYEDGIREGFNGVRLTGEMHWALRGLPGSERLAEYESRINLLVVDCPLTVICQYDANHFDGATLFKILNAHPMMIVRGQVVHNPYYLSPEEYFARYPVPNVEGHHHHHH” stands “soluble”.
